Reference: paper PMC8660800

Target: NOT9 module of the human CCR4-NOT complex (human) (UniProt Q92600)

inhibition of deadenylation by 50 nM CCR4-NOT MINI (50 nM 7-mer-A20 RNA, stopped after 32 min), MBP-RNF219-C titrated 0.05-5.0 µM; inhibition already apparent at 0.05 µM: 2.5 µM
B1: MBP-RNF219-C (residues 434-726) with a C-terminal StrepII tag (domain or fragment)
chain: SSNVSNKDSSEDDISRSENEKKSECFSSPKTGFWDCCSTSYAQNLDFESSEGNTIANSVGEISSKLSEKSGLCLSKRLNSIRSFEMNRTRTSSEASMDAAYLDKISELDSMMSESDNSKSPCNNGFKSLDLDGLSKSSQGSEFLEEPDKLEEKTELNLSKGSLTNDQLENGSEWKPTSFFLLSPSDQEMNEDFSLHSSSCPVTNEIKPPSCLFQTEFSQGILLSSSHRLFEDQRFGSSLFKMSSEMHSLHNHLQSPWSTSFVPEKRNKNVNQSTKRKIQSSLSSASPSKATKS
